In patent US20240182580A1:

Assays:
[1] = molecular target: CD74 on human tumour cell lines (human) (UniProt P04233); assay: flow cytometry on ARD (MM) cells; Table 3 repeats Table 2
[2] = molecular target: CD74 on human tumour cell lines (human) (UniProt P04233); assay: flow cytometry on ARP-1 (MM) cells; Table 3 repeats Table 2
[3] = molecular target: CD74 on human tumour cell lines (human) (UniProt P04233); assay: flow cytometry on BDCM (AML) cells; Table 3 repeats Table 2
[4] = molecular target: CD74 on human tumour cell lines (human) (UniProt P04233); assay: flow cytometry on JVM-13 (CLL) cells; Table 3 repeats Table 2; design: Bmax: unit not given here
[5] = molecular target: CD74 on human tumour cell lines (human) (UniProt P04233); assay: flow cytometry on SUP-B15 (ALL) cells; Table 3 repeats Table 2; design: Bmax: unit not given here
[6] = molecular target: CD74 on human tumour cell lines (human) (UniProt P04233); assay: flow cytometry on ARD (MM) cells, one-site specific binding fit
[7] = molecular target: CD74 on human tumour cell lines (human) (UniProt P04233); assay: flow cytometry on RPMI-6666 (HL) cells; Table 3 repeats Table 2
[8] = molecular target: CD74 on human tumour cell lines (human) (UniProt P04233); assay: flow cytometry on RPMI-8226 (MM) cells; Table 3 repeats Table 2
[9] = molecular target: CD74 on human tumour cell lines (human) (UniProt P04233); assay: flow cytometry on SU-DHL-6 (NHL) cells; Table 3 repeats Table 2
[10] = molecular target: CD74 on human tumour cell lines (human) (UniProt P04233); assay: flow cytometry on BDCM (AML) cells, one-site specific binding fit
[11] = molecular target: CD74 on human tumour cell lines (human) (UniProt P04233); assay: flow cytometry on JVM-13 (CLL) cells, one-site specific binding fit
[12] = molecular target: CD74 on human tumour cell lines (human) (UniProt P04233); assay: flow cytometry on SUP-B15 (ALL) cells, one-site specific binding fit
[13] = molecular target: CD74 on human tumour cell lines (human) (UniProt P04233); assay: flow cytometry on RPMI-6666 (HL) cells, one-site specific binding fit
[14] = molecular target: CD74 on human tumour cell lines (human) (UniProt P04233); assay: flow cytometry on RPMI-8226 (MM) cells, one-site specific binding fit
[15] = molecular target: CD74 on human tumour cell lines (human) (UniProt P04233); assay: flow cytometry on SU-DHL-6 (NHL) cells, one-site specific binding fit
[16] = molecular target: CD74 on human tumour cell lines (human) (UniProt P04233); assay: flow cytometry on ARD (MM) cells, geometric MFI, one-site specific binding fit
[17] = molecular target: CD74 on human tumour cell lines (human) (UniProt P04233); assay: flow cytometry on ARP-1 (MM) cells, geometric MFI, one-site specific binding fit
[18] = molecular target: CD74 on human tumour cell lines (human) (UniProt P04233); assay: flow cytometry on BDCM (AML) cells, geometric MFI, one-site specific binding fit
[19] = molecular target: CD74 on human tumour cell lines (human) (UniProt P04233); assay: flow cytometry on JVM-13 (CLL) cells, geometric MFI, one-site specific binding fit
[20] = molecular target: CD74 on human tumour cell lines (human) (UniProt P04233); assay: flow cytometry on SUP-B15 (ALL) cells, geometric MFI, one-site specific binding fit
[21] = molecular target: CD74 on human tumour cell lines (human) (UniProt P04233); assay: flow cytometry on RPMI-6666 (HL) cells, geometric MFI, one-site specific binding fit
[22] = molecular target: CD74 on human tumour cell lines (human) (UniProt P04233); assay: flow cytometry on RPMI-8226 (MM) cells, geometric MFI, one-site specific binding fit
[23] = molecular target: CD74 on human tumour cell lines (human) (UniProt P04233); assay: flow cytometry on SU-DHL-6 (NHL) cells, geometric MFI, one-site specific binding fit

B1: anti-CD74 antibody without conjugation (anti-CD74 IgG of Examples 2 and 3) (antibody, V domains shown)
VH: QVQLVESGGGVVQPGRSLRLSCAASGFNFSDYGMHWVRQAPGKGLEWVAVIWYDGSISYYADSVKGRFTISRDNSKNTLYLQMNSLRAEDTAVYYCARGGTVEHGAVYGTDVWGQGTTVTVSS
VL: DIQMTQSPSSVSASVGDRVTITCRASQGIGSWLAWYQQKPGKAPKLLIYAADRLQSGVPSRFSGSGSGTDFTLTISSLQPEDFATYYCQQYHTYPLTFGGGTKVEIK
[1]
  Bmax: 190
  Kd: 2.6 nM
[2]
  Bmax: 341
[3]
  Bmax: 3060
  Kd: 4.5 nM
[4]
  Bmax: 447
  Kd: 2.5 nM
[5]
  Bmax: 680
  Kd: 3.5 nM
[6]
  Kd: 2.6 nM
[7]
  Bmax: 3880
  Kd: 2.3 nM
[8]
  Bmax: 119
  Kd: 3.6 nM
[9]
  Bmax: 1560
  Kd: 2 nM
[10]
  Kd: 4.5 nM
[11]
  Kd: 2.5 nM
[12]
  Kd: 3.5 nM
[13]
  Kd: 2.3 nM
[14]
  Kd: 3.6 nM
[15]
  Kd: 2 nM
[16]
  Bmax: 190
[17]
  Bmax: 341
[18]
  Bmax: 3060
[19]
  Bmax: 447
[20]
  Bmax: 680
[21]
  Bmax: 3880
[22]
  Bmax: 119
[23]
  Bmax: 1560
